Data as given in publication PMC10164062 (Cancer discovery, 2023).

Biological target: the molecule itself
Test: cross-linking

B1: p53R245W (mouse, DNA binding domain mutant) (natural protein, mouse (endogenous in MEFs), UniProt P02340 1-390, looked up)
chain: MTAMEESQSDISLELPLSQETFSGLWKLLPPEDILPSPHCMDDLLLPQDVEEFFEGPSEALRVSGAPAAQDPVTETPGPVAPAPATPWPLSSFVPSQKTYQGNYGFHLGFLQSGTAKSVMCTYSPPLNKLFCQLAKTCPVQLWVSATPPAGSRVRAMAIYKKSQHMTEVVRRCPHHERCSDGDGLAPPQHLIRVEGNLYPEYLEDRQTFRHSVVVPYEPPEAGSEYTTIHYKYMCNSSCMGGMNWRPILTIITLEDSSGNLLGRDSFEVRVCACPGRDRRTEEENFRKKEVLCPELPPGSAKRALPTCTSASPPQKKKPLDGEYFTLKIRGRKRFEMFRELNEALELKDAHATEESGDSRAHSSYLKTKKGQSTSRHKKTMVKKVGPDSD
  stoichiometry N: 4
